For assay [1], the target named is human PD-1 expressed on cells (human) (UniProt Q15116). The assay is described as follows: flow cytometry on CHO cells expressing human PD-1; detection with anti-human IgG Fc (PE GeoMFI); fit of a flat control curve.
Assay [2] deals with cynomolgus PD-1 expressed on cells (cynomolgus) (UniProt B0LAJ3). Description: flow cytometry on CHO cells expressing cynomolgus PD-1; detection with anti-human IgG Fc (PE GeoMFI); fit of a flat control curve. A general note: Flow cytometry measures light scatter and fluorescence of single cells or particles in a stream.
The target of assay [3] is human PD-1 expressed on cells (human) (UniProt Q15116). The assay is described as follows: cell-based or functional assay.

Bounds are passed on as bounds.

Sequence of UniProt Q15116 (Q15116 25-198 limits assumed): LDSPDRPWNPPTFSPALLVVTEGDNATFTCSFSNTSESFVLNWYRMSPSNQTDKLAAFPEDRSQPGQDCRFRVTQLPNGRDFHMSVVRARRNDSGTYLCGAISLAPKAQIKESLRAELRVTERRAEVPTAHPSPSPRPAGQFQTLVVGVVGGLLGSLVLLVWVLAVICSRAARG
Sequence of UniProt B0LAJ3 (B0LAJ3 entry or part of it limits assumed): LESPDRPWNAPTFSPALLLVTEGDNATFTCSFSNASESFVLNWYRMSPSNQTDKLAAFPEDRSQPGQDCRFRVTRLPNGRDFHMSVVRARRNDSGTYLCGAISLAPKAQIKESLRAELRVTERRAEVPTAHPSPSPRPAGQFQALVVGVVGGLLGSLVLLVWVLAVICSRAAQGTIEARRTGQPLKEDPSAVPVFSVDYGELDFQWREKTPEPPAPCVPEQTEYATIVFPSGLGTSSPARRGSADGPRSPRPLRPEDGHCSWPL

Consider huIgG1 Fc, for which the LogEC50 in assay [1] is -7.75 log10(nM); in assay [2], -6.89 log10(nM).

Consider human IgG Fc fragment, for which the IL-17 and IFN-γ levels, human whole blood assay, EC50 in assay [3] is > 100 nM.

Source of the values: US20170088618A1.
